Measured values reported in IntAct's records for PubMed 32296183.

B1: Golgi SNAP receptor complex member 2 (Homo sapiens), O14653 (parent)
chain: MDPLFQQTHKQVHEIQSCMGRLETADKQSVHIVENEIQASIDQIFSRLERLEILSSKEPPNKRQNARLRVDQLKYDVQHLQTALRNFQHRRHAREQQERQREELLSRTFTTNDSDTTIPMDESLQFNSSLQKVHNGMDDLILDGHNILDGLRTQRLTLKGTQKKILDIANMLGLSNTVMRLIEKRAFQDKYFMIGGMLLTCVVMFLVVQYLT
partner: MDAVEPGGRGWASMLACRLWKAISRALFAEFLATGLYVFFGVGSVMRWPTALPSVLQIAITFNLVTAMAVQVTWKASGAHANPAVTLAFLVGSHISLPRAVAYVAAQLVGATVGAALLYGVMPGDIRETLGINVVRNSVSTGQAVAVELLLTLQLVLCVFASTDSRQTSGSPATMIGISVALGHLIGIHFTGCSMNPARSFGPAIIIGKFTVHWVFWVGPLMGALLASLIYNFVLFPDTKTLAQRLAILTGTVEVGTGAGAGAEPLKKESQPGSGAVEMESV
B2: Golgi SNAP receptor complex member 2 (Homo sapiens), O14653 (parent)
chain: B1 chain
partner: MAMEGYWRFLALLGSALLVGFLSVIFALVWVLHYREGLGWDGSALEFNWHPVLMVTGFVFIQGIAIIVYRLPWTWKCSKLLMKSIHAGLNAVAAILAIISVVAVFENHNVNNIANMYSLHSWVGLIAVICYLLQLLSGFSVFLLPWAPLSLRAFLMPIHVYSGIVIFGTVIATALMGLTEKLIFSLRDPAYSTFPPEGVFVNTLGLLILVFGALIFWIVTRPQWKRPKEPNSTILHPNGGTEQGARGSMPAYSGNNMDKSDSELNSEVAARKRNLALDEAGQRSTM
B3: Very-long-chain enoyl-CoA reductase (Homo sapiens), Q9NZ01 (parent)
chain: MKHYEVEILDAKTREKLCFLDKVEPHATIAEIKNLFTKTHPQWYPARQSLRLDPKGKSLKDEDVLQKLPVGTTATLYFRDLGAQISWVTVFLTEYAGPLFIYLLFYFRVPFIYGHKYDFTSSRHTVVHLACICHSFHYIKRLLETLFVHRFSHGTMPLRNIFKNCTYYWGFAAWMAYYINHPLYTPPTYGAQQVKLALAIFVICQLGNFSIHMALRDLRPAGSKTRKIPYPTKNPFTWLFLLVSCPNYTYEVGSWIGFAIMTQCLPVALFSLVGFTQMTIWAKGKHRSYLKEFRDYPPLRMPIIPFLL
partner: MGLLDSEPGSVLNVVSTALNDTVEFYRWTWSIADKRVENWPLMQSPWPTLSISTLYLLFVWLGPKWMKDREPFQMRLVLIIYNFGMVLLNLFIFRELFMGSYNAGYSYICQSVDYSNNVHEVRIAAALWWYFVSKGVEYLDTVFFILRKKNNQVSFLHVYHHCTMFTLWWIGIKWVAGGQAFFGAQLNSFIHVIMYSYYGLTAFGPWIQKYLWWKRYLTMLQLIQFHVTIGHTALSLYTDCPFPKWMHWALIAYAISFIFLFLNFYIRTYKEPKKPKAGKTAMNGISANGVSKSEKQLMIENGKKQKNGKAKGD
B4: Very-long-chain enoyl-CoA reductase (Homo sapiens), Q9NZ01 (parent)
chain: B3 chain
partner: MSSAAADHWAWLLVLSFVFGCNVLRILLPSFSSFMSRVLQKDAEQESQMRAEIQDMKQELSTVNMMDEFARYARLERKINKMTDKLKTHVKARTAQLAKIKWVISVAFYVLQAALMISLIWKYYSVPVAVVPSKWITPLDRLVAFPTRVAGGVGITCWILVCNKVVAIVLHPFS
B5: Ceroid-lipofuscinosis neuronal protein 6 (Homo sapiens), Q9NWW5 (parent)
chain: MEATRRRQHLGATGGPGAQLGASFLQARHGSVSADEAARTAPFHLDLWFYFTLQNWVLDFGRPIAMLVFPLEWFPLNKPSVGDYFHMAYNVITPFLLLKLIERSPRTLPRSITYVSIIIFIMGASIHLVGDSVNHRLLFSGYQHHLSVRENPIIKNLKPETLIDSFELLYYYDEYLGHCMWYIPFFLILFMYFSGCFTASKAESLIPGPALLLVAPSGLYYWYLVTEGQIFILFIFTFFAMLALVLHQKRKRLFLDSNGLFLFSSFALTLLLVALWVAWLWNDPVLRKKYPGVIYVPEPWAFYTLHVSSRH
partner: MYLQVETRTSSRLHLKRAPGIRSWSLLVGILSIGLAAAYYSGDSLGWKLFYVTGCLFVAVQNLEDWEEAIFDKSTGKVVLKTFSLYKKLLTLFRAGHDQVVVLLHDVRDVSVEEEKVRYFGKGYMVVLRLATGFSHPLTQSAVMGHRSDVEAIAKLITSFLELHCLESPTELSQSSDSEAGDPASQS
B6: Dolichol kinase (Homo sapiens), Q9UPQ8 (parent)
chain: MTRECPSPAPGPGAPLSGSVLAEAAVVFAVVLSIHATVWDRYSWCAVALAVQAFYVQYKWDRLLQQGSAVFQFRMSANSGLLPASMVMPLLGLVMKERCQTAGNPFFERFGIVVAATGMAVALFSSVLALGITRPVPTNTCVILGLAGGVIIYIMKHSLSVGEVIEVLEVLLIFVYLNMILLYLLPRCFTPGEALLVLGGISFVLNQLIKRSLTLVESQGDPVDFFLLVVVVGMVLMGIFFSTLFVFMDSGTWASSIFFHLMTCVLSLGVVLPWLHRLIRRNPLLWLLQFLFQTDTRIYLLAYWSLLATLACLVVLYQNAKRSSSESKKHQAPTIARKYFHLIVVATYIPGIIFDRPLLYVAATVCLAVFIFLEYVRYFRIKPLGHTLRSFLSLFLDERDSGPLILTHIYLLLGMSLPIWLIPRPCTQKGSLGGARALVPYAGVLAVGVGDTVASIFGSTMGEIRWPGTKKTFEGTMTSIFAQIISVALILIFDSGVDLNYSYAWILGSISTVSLLEAYTTQIDNLLLPLYLLILLMA
partner: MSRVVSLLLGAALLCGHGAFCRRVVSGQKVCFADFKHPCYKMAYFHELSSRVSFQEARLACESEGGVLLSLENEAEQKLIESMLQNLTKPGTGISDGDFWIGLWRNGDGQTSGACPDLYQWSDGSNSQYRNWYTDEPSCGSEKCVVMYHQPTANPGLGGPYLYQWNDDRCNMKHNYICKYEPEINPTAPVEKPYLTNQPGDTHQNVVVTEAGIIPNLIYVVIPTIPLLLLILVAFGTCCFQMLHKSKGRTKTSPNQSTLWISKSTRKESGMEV
B7: Catenin alpha-3 (Homo sapiens), Q9UI47-2 (parent)
chain: MSAETPITLNIDPQDLQVQTFTVEKLLEPLIIQVTTLVNCPQNPSSRKKGRSKRASVLLASVEEATWNLLDKGEKIAQEATVLKDELTASLEEVRKESEALKVSAERFTDDPCFLPKREAVVQAARALLAAVTRLLILADMIDVMCLLQHVSAFQRTFESLKNVANKSDLQKTYQKLGKELENLDYLAFKRQQDLKSPNQRDEIAGARASLKENSPLLHSICSACLEHSDVASLKASKDTVCEEIQNALNVISNASQGIQNMTTPPEPQAATLGSALDELENLIVLNPLTVTEEEIRPSLEKRLEAIISGAALLADSSCTRDLHRERIIAECNAIRQALQDLLSEYMNNAGKKERSNTLNIALDNMCKKTRDLRRQLRKAIIDHVSDSFLDTTVPLLVLIEAAKNGREKEIKEYAAIFHEHTSRLVEVANLACSMSTNEDGIKIVKIAANHLETLCPQIINAALALAARPKSQAVKNTMEMYKRTWENHIHVLTEAVDDITSIDDFLAVSGMFLFF
partner: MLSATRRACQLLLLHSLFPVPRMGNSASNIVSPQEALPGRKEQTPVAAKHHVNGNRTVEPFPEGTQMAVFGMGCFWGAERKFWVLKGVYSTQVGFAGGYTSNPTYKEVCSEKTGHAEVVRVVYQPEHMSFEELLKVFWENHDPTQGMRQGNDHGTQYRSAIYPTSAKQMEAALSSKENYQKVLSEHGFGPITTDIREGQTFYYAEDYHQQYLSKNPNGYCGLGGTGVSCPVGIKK
B8: Golgi SNAP receptor complex member 2 (Homo sapiens), O14653 (parent)
chain: B1 chain
partner: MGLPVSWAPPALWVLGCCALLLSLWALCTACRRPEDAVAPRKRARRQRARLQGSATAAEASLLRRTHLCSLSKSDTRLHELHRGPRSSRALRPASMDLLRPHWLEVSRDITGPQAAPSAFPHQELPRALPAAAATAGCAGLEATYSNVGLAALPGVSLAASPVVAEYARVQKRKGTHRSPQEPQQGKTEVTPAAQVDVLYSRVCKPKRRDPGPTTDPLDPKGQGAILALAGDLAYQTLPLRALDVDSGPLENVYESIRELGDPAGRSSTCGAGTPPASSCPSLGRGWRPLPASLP

Variants of: B1
Details: with aqp6_human AQP6, Q13520

Row | Variant | effect of a mutation on the interaction
1 | G144W | with no effect

Variants of: B2
Details: with cybr1_human CYBRD1, Q53TN4

Row | Variant | effect of a mutation on the interaction
2 | G144W | with no effect

Variants of: B3
Details: with elov4_human ELOVL4, Q9GZR5

Row | Variant | effect of a mutation on the interaction
3 | P182L | disrupting interaction strength

Variants of: B4
Details: with get1_human GET1, O00258

Row | Variant | effect of a mutation on the interaction
4 | P182L | disrupting interaction strength

Variants of: B5
Details: with cybc1_human CYBC1, Q9BQA9

Row | Variant | effect of a mutation on the interaction
5 | R6T | disrupting interaction strength
6 | G123D | disrupting interaction strength
7 | L47F | disrupting interaction strength

Variants of: B6
Details: with chodl_human CHODL

Row | Variant | effect of a mutation on the interaction
8 | Y441S | disrupting interaction strength

Variants of: B7
Details: with msra_human MSRA

Row | Variant | effect of a mutation on the interaction
9 | V94D | with no effect

Variants of: B8
Details: with lime1_human LIME1, Q9H400

Row | Variant | effect of a mutation on the interaction
10 | G144W | disrupting interaction strength
